From US20250011422A1 (UNIVERSITY OF FLORIDA RESEARCH FOUNDATION, published 2025)
Where two headings read alike, the source gives them in different places.

Assays:
[1] = biological target: T1, human Siglec-6 on the cell surface (U937, MEC1-002, MEC1-hS6, primary CLL cells) (human, UniProt O43699 27-453); test: flow cytometry of whole PBMC with biotinylated JML-1 IgG1, normalised to an isotype control
T1 construct: whole, on cells; Endogenous on U937, MEC1-002 and CLL cells; stably transfected in MEC1-hS6
Experimental: (§1) Flow cytometry: Fabs were used to stain cells at a concentration of 2 μg/mL, unless otherwise noted. […] Samples were analyzed on either an Accuri C6 Plus or a LSRII flow cytometer (both from BD Biosciences).

[2] = biological target: T1, human Siglec-6 on the cell surface …; test: cell-based or functional assay
[3] = biological target: T1, human Siglec-6 on the cell surface …; test: cell-based or functional assay; remark: listed apart in the source
Siglec-6 VC28-235-His6 = biological target: T2, Siglec-6 VC28-235-His6 (human, UniProt O43699 28-235); test: SPR, T-biAb immobilised via the Fc domain, soluble Siglec-6 (aa 28-235-His6) injected
T2 construct: It was deglycosylated with PNGase F for HDX-MS; also called soluble Siglec-6 (aa 28-235-His6); Siglec-6 ectodomain fragment
Experimental: (§2) Fab kinetics were determined by capturing Siglec-6-Fc (5-10 μg/mL) in HBS-EP+ buffer (Cytiva) and injecting titrated. […] Biacore evaluation software was used to calculate kₒₙ, koff, and Kd.

[4] = biological target: T1, human Siglec-6 on the cell surface …; test: flow cytometry titration on MEC1-hS6 cells, apparent Kd; aDART-Fc format, RC-1 clone
Experimental: (§3) To determine whether T-biAb format affected the affinity to Siglec-6 or CD3 on the cell surface, T-biAbs were titrated and used to stain cells for flow cytometry (FIG. 17a).
as §1

CD3 on human T cells = biological target: T3, CD3 on human T cells (human, UniProt P07766 23-207); test: flow cytometry titration on primary human T cells, Alexa Fluor 647 anti-human Fc secondary antibody, percent biAb+ cells
T3 construct: whole, on cells; CD3 is a complex; also called CD3+ cells
Experimental: as §3, §1

[5] = biological target: T1, human Siglec-6 on the cell surface …; test: cell-based or functional assay; remark: listed apart in the source
[6] = biological target: T4, rhesus macaque (Macaca mulatta) Siglec-6 Fc fusion protein (human; Macaca mulatta (rhesus macaque), UniProt A0A1D5QH63 16-333); test: ELISA, siglec-Fc fusion protein coated directly (50 ng), anti-human F(ab')2-HRP detection, absorbance 405-570 nm
T4 construct: range 16-333; it is not the assay construct; also called rhesus Siglec-6; macaque Siglec-6; not shown: human IgG1 Fc, aa 99-329

Siglec-9 [7] = biological target: T5, Siglec-9 (Homo sapiens, UniProt Q9Y336); test: as above
T5 construct: Fc fusion protein; member of the siglec panel (group m8); also called human Siglec-9-Fc fusion protein

[8] = biological target: T6, recombinant human Siglec-6 human IgG1-Fc fusion protein (human, UniProt O43699 27-347); test: SPR, immobilized hS6-Fc, soluble Fab
T6 construct: range 27-347; The methods describe the in-house construct as the Siglec-6 ectodomain at the C-terminus of the Fc (Fc-Siglec-6); The text uses hS6-Fc, Siglec-6-Fc and Fc-Siglec-6 for the SPR and ELISA antigen without telling the orientations apart; also called hS6-Fc; Fc-hS6; not shown: human IgG1 Fc, aa 99-329

Siglec-8 = biological target: T7, Siglec-8 (Homo sapiens, UniProt Q9NYZ4); test: ELISA, siglec-Fc fusion protein coated directly, anti-human Fab detection, absorbance 405-570 nm
T7 construct: Fc fusion protein; member of the siglec panel (group m8); also called human Siglec-8-Fc fusion protein

Siglec-2 (CD22) = biological target: T8, Siglec-2 (CD22) (Homo sapiens, UniProt P20273); test: as above
T8 construct: Fc fusion protein; member of the siglec panel (group m8); also called human Siglec-2-Fc fusion protein

human CD33 (Siglec-3) = human CD33 (Siglec-3) (human, UniProt P20138 18-259, limits assumed); test: as above
[9] = biological target: T6, recombinant human Siglec-6 human …; test: SPR, Siglec-6-Fc captured, soluble Fab injected
Experimental: as §2

[10] = biological target: T1, human Siglec-6 on the cell surface …; test: flow cytometry titration on MEC1-hS6 cells, apparent Kd; scFv-Fc format, JML-1 clone
Experimental: as §3, §1

[11] = biological target: T1, human Siglec-6 on the cell surface …; test: cell-based or functional assay; remark: listed apart in the source
Siglec-9 [12] = biological target: T5, Siglec-9; test: ELISA, siglec-Fc fusion protein coated directly, anti-human Fab detection, absorbance 405-570 nm
[13] = biological target: T6, recombinant human Siglec-6 human …; test: SPR, monovalent Fab on Siglec-6-Fc fusion protein
Experimental: as §2

T6 sequence (O43699 27-347 limits assumed): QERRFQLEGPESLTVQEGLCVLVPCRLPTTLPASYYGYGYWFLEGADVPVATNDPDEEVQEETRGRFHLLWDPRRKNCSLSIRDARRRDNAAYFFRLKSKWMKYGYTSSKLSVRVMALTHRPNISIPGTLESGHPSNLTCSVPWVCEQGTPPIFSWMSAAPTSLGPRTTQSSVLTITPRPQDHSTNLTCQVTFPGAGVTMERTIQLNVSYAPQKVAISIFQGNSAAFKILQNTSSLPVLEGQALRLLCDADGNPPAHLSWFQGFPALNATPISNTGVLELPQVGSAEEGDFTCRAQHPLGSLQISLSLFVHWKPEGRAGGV
T1 sequence (O43699 27-453): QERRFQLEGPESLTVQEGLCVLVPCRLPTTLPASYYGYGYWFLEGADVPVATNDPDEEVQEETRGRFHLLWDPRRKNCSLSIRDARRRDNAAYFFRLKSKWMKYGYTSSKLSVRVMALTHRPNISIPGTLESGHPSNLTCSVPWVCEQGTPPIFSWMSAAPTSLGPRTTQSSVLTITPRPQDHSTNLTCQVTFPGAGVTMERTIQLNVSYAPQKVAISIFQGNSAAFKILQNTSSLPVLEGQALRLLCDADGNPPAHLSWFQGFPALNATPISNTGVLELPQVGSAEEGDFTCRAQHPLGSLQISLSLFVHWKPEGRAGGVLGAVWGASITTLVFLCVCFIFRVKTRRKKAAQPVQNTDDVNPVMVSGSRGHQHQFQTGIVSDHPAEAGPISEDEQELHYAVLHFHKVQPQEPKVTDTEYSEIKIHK
T3 sequence (P07766 23-207): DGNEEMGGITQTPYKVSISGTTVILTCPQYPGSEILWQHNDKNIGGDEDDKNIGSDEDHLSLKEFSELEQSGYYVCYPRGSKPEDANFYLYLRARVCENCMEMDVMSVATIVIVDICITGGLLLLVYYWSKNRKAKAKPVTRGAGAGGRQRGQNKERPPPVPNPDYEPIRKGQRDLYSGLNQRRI
T2 sequence (O43699 other isoform, or with tags, fused parts or gaps limits assumed): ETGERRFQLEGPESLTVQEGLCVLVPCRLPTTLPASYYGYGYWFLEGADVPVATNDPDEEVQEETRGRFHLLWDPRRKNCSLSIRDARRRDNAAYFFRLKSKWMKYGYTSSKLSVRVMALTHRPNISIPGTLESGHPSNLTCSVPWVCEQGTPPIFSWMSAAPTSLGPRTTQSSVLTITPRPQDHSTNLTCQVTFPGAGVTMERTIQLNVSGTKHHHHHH
T5 sequence (Q9Y336 18-348 limits assumed): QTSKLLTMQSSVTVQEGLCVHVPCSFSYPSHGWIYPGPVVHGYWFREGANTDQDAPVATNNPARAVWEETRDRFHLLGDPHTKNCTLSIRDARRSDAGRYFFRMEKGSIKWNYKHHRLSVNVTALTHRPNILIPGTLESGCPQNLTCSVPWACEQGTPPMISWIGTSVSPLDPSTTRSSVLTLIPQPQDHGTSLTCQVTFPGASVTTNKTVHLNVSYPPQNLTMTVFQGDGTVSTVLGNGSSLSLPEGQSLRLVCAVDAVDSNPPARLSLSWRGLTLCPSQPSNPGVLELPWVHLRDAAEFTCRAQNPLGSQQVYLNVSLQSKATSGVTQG
T7 sequence (Q9NYZ4 17-363 limits assumed): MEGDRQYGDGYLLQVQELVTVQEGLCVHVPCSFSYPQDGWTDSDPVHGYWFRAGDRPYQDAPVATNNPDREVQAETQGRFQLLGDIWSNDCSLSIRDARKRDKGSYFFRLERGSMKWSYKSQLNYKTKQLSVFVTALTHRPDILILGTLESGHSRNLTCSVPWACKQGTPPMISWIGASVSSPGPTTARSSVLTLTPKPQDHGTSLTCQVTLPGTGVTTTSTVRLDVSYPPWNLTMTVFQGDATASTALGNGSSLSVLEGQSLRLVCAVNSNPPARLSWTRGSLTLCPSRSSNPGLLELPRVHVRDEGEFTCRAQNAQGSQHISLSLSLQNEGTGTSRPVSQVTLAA
Chain of human CD33 (Siglec-3) (P20138 18-259 limits assumed): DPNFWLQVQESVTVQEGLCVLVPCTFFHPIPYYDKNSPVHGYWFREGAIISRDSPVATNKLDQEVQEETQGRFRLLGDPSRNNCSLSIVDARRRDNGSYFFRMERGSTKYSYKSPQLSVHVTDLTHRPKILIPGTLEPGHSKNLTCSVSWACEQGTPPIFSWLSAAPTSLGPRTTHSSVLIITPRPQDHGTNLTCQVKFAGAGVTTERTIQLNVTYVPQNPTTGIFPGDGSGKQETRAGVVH
T4 sequence (A0A1D5QH63 entry or part of it): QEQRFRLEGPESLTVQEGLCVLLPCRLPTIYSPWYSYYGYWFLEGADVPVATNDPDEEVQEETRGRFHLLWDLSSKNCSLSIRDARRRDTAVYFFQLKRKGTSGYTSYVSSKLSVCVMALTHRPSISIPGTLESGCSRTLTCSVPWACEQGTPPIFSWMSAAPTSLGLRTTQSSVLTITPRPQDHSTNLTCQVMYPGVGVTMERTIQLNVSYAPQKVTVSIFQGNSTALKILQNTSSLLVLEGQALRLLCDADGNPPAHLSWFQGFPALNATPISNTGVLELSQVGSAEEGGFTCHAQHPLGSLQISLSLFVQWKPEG

B1: JML-1 biotinylated IgG1 (antibody, V domains shown)
VH: KVQLLESGGGLVQPGRSLRLSCAASGFTFDDYGMHWVRQAPGKGLEWVSGISWNSGSIGYADSVKGRFTISRDNSKNTLYLQMNSLRAEDTAVYYCARGGQTIDIWGQGTMVTVSS
VL: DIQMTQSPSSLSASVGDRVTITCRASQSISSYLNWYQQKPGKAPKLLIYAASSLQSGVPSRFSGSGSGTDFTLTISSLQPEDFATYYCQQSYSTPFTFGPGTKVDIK
modifications: Biotinylated IgG1; the biotin sites are not stated and are not carried in the letters.
[1]
  binding result: binds

B2: RC-1/V9 aDART-Fc (bispecific antibody)
chain 1: not shown
chain 2: DIQMTQSPSSLSASVGDRVTITCRASQDIRNYLNWYQQKPGKAPKLLIYYTSRLESGVPSRFSGSGSGTDYTLTISSLQPEDFATYYCQQGNTLPWTFGQGTKVEIKGGGGSGGGGEVQLVESGGGLVQPGRSLRLSCAASGFTFSSYGMHWVRQAPGKGLEWVAVISYDGSNKYYADSVKGRFTISRDNSKNTLYLQMNSLRAEDTAVYYCANYGMDVWGKGTTVTVSSASTKGKVAACKEKVAALKEKVAALKEKVAALKE
chain 3: DKTHTCPPCPAPEAAGGPSVFLFPPKPKDTLMISRTPEVTCVVVDVSHEDPEVKFNWYVDGVEVHNAKTKPREEQYNSTYRVVSVLTVLHQDWLNGKEYKCKVSNKALGAPIEKTISKAKGQPREPQVCTLPPSRDELTKNQVSLSCAVKGFYPSDIAVEWESNGQPENNYKTTPPVLDSDGSFFLVSKLTVDKSRWQQGNVFSCSVMHEALHNRFTQKSLSLSPGA
notes: Three-chain asymmetric DART-Fc; Chain 1 is RC-1vk-G3SG4-V9vh-ASTK-E-coil-G3-Fc knobs, chain 2 is V9vk-G4SG4-RC-1vh-ASTK-K-coil, and chain 3 is Fc holes; also called Siglec-6xCD3 T-biAb in aDART-Fc format
[2]
  directed T cell lysis of CLL cell lines, EC50: 0.12 pM
  fold increase in lysis potency compared to RC-1/V9 scFv-Fc: 25 fold
  fold lower lysis EC50 than CD19/V9 scFv-Fc (MEC1-002, E:T 1:30, 48 h): ~3 fold
  fold lower lysis EC50 than RC-1/V9 scFv-Fc (MEC1-002, E:T 1:30, 48 h): > 10 fold
  specific lysis of MEC1-002 cells at E:T 1:30, EC50: 1.1 pM
  specific lysis of primary CLL cells by autologous T cells, day 11, median: 24.9%
[3]
  EC50 (read off the curve), NFAT reporter activation with MEC1-002 cells: ~40 pM
Siglec-6 VC28-235-His6
  Kd: 150 pM
  koff: 0.00045 s⁻¹
  kon: 2.96e+06 M⁻¹ s⁻¹
[4]
  Kd: 790 pM
CD3 on human T cells
  EC50 (read off the curve): ~100 pM

B3: V9/RC-1 sDART-Fc (bispecific antibody)
chain 1: DIQMTQSPSSLSASVGDRVTITCRASQDIRNYLNWYQQKPGKAPKLLIYYTSRLESGVPSRFSGSGSGTDYTLTISSLQPEDFATYYCQQGNTLPWTFGQGTKVEIKGGGSGGGGEVQLVESGGGLVQPGRSLRLSCAASGFTFSSYGMHWVRQAPGKGLEWVAVISYDGSNKYYADSVKGRFTISRDNSKNTLYLQMNSLRAEDTAVYYCANYGMDVWGKGTTVTVSSGCPPCPAPEAAGGPSVFLFPPKPKDTLMISRTPEVTCVVVDVSHEDPEVKFNWYVDGVEVHNAKTKPREEQYNSTYRVVSVLTVLHQDWLNGKEYKCKVSNKALGAPIEKTISKAKGQPREPQVCTLPPSRDELTKNQVSLSCAVKGFYPSDIAVEWESNGQPENNYKTTPPVLDSDGSFFLVSKLTVDKSRWQQGNVFSCSVMHEALHNRFTQKSLSLSPGA
chain 2: not shown
notes: Two-chain symmetric DART-Fc
Siglec-6 VC28-235-His6
  Kd: 70 pM
  koff: 0.0003 s⁻¹
  kon: 4.14e+06 M⁻¹ s⁻¹
CD3 on human T cells
  EC50 (read off the curve): ~300 pM
[5]
  EC50, lysis of MEC1-hS6 cells by human T cells (E:T 1:1, luciferase): 0.69 pM

B4: RC-1 Fab (Fab, V domains shown)
VH: EVQLVESGGGLVQPGRSLRLSCAASGFTFSSYGMHWVRQAPGKGLEWVAVISYDGSNKYYADSVKGRFTISRDNSKNTLYLQMNSLRAEDTAVYYCANYGMDVWGKGTTVTVSS
VL: not shown
notes: Human Fab (kappa) from the post-alloHSCT phage library, expressed in E. coli
[6]
  binding result: no binding (tested: 75 ng Fab per well)
Siglec-9 [7]
  binding result: no binding (tested: 75 ng Fab per well)
[8]
  Kd: 490 pM
Siglec-8
  binding result: no binding (tested: 75 ng Fab per well)
Siglec-2 (CD22)
  binding result: no binding (tested: 75 ng Fab per well)
Human CD33 (Siglec-3)
  binding result: no binding (tested: 75 ng Fab per well)
[9]
  T1/2: 37 min

B5: JML-1/V9 scFv-Fc (bispecific antibody)
chain 1: not shown
chain 2: EVQLVESGGGLVQPGGSLRLSCAASGYSFTGYTMNWVRQAPGKGLEWVALINPYKGVSTYNQKFKDRFTISVDKSKNTAYLQMNSLRAEDTAVYYCARSGYYGDSDWYFDVWGQGTLVTVSSGGGGSGGGGSGGGGSDIQMTQSPSSLSASVGDRVTITCRASQDIRNYLNWYQQKPGKAPKLLIYYTSRLESGVPSRFSGSGSGTDYTLTISSLQPEDFATYYCQQGNTLPWTFGQGTKVEIKEPKSSDKTHTCPPCPAPELLGGPSVFLFPPKPKDTLMISRTPEVTCVVVDVSHEDPEVKFNWYVDGVEVHNAKTKPREEQYASTYRVVSVLTVLHQDWLNGKEYKCKVSNKALPAPIEKTISKAKGQPREPQVCTLPPSRDELTKNQVSLSCAVKGFYPSDIAVEWESNGQPENNYKTTPPVLDSDGSFFLVSKLTVDKSRWQQGNVFSCSVMHEALHNHYTQKSLSLSPGA
notes: Knobs-into-holes heterodimer of the JML-1 scFv-Fc knob arm and the shared anti-CD3 V9 scFv-Fc hole arm; Both arms carry N297A; also called JML-1 clone T-biAb
[2]
  specific lysis of MEC1-hS6 by healthy donor T cells, EC50: 2.4 pM
  specific lysis of primary CLL cells by autologous T cells, day 11, median: 8.8%
CD3 on human T cells
  EC50 (read off the curve): ~70 pM
[10]
  Kd: 610 pM
[11]
  EC50 (read off the curve), NFAT reporter activation with MEC1-002 cells: ~80 pM

B6: ARN-1 Fab (Fab, V domains shown)
VH: EVQLVQSGGGVVQPGRSLTLSCAAFGFTFSTYTMHWVRQAPGKGLEWVAVISYDEGFKYYADSVKGRFTISRDISKNTLYLQMNSLRTEDTAVYYCAREASAFDIWGQGTMVTVSS
VL: SYVLTQPPLVSVSPGQTARITCSGENWGQKYASWYQQKPGQSPMLIIYEDTKRPSEIPERFSGSNSGSTVTLTISGTQPMDEADYYCQAWDDSTGGVFGTGTKVTVL
notes: Human Fab from a naive human Fab library
Siglec-8
  binding result: no binding (tested: 75 ng Fab per well)
Siglec-2 (CD22)
  binding result: no binding (tested: 75 ng Fab per well)
Human CD33 (Siglec-3)
  binding result: no binding (tested: 75 ng Fab per well)
Siglec-9 [12]
  binding result: no binding (tested: 75 ng Fab per well)
[13]
  Kd: 2630 pM
  koff: 0.000268 s⁻¹
  kon: 100000 M⁻¹ s⁻¹

B7: RC-2 Fab (Fab, V domains shown)
VH: EVQLLESGGGVVQPGRSLRLSCAASGFTFSSYGMHWVRQAPGKGLEWVAVISYDGSNKHYADSVKGRFTISRDNSKNTLYLQMNSLRAEDTAVYYCARGGQTIDIWGQGTMVTVSS
VL: not shown
notes: Human Fab (kappa), expressed in E. coli
[8]
  Kd: 2760 pM
[9]
  T1/2: 27 min
